Consider six molecules from patent US20200199241A1 (Chugai, published 2020).

Where two headings read alike, the source gives them in different places.

The target in one assay is T1, human FcγRIa (human, UniProt P12314 16-292, limits assumed).
T1 construct: also called FcgRIa; hFcgRIa
Put plainly: SPR, pH 7.4, antibody captured by Protein L. A general note: Surface plasmon resonance follows binding to a sensor surface in real time, without labels.

The next assay concerns the target T2, human FcγRIIa(R) (human, UniProt P12318 36-217).
T2 construct: also called FcgRIIaR; hFcgRIIa(R)
T2 chain: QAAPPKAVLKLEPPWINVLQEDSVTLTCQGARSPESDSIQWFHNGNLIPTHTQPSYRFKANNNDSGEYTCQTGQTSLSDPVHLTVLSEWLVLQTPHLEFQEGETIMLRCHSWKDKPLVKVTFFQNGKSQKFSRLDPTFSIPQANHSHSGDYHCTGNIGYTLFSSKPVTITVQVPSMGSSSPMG
Put plainly: SPR, pH 7.4, antibody captured by Protein L.

For the next assay, the target named is T3, human FcγRIIa(H) (human, UniProt P12318 36-217).
T3 construct: also called FcgRIIaH; hFcgRIIa(H)
T3 sequence: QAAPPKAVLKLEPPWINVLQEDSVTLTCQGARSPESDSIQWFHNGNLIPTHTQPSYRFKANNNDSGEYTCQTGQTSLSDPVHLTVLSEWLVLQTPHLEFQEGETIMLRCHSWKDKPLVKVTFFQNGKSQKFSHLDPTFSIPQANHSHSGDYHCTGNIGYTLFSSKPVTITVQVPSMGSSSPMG
Put plainly: SPR, pH 7.4, antibody captured by Protein L.

Assay [1] addresses T4, human FcγRIIb (human, UniProt P31994 43-217, limits assumed).
T4 construct: also called FcgRIIb; hFcgRIIb
T4 sequence: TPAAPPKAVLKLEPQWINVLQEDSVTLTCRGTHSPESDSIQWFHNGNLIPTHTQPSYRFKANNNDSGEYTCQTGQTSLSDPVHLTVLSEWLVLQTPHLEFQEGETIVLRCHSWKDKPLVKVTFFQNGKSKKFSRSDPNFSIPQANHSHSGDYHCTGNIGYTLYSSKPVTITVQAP
The assay is described as follows: SPR, pH 7.4, antibody captured by Protein L.

The target in the next assay is T5, human FcγRIIIa(V) (human, UniProt P08637 17-208, limits assumed).
T5 construct: also called hFcgRIIIa(V); FcγRIIIa allotype V158
T5 sequence (P08637 other isoform, or with tags, fused parts or gaps limits assumed): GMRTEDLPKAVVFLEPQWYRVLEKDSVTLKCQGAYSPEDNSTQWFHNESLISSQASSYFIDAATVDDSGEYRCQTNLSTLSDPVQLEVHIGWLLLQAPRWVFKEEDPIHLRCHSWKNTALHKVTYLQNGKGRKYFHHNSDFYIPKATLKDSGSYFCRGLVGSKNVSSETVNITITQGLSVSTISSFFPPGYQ
The assay is described as follows: SPR, pH 7.4, antibody captured by Protein L.

Assay [2] concerns the target T6, human FcRn (complex with human β2-microglobulin) (human, UniProt P61769 21-119, limits assumed).
T6 construct: soluble human FcRn complexed with β2-microglobulin was used; also called hFcRn
The assay is described as follows: SPR, pH 7.0, antibody captured by Protein L, hFcRn analyte.

Assay [3] concerns the target T7, human FcRn (soluble human FcRn complexed with β2-microglobulin) (human, UniProt P61769 21-119, limits assumed).
T7 construct: also called hFcRn
Put plainly: SPR, antibody captured by Protein L, human FcRn as analyte, pH 7.0, 25 C.

For a further assay, the target named is T8, mouse FcγRIIb (mouse, UniProt P08101 30-207, limits assumed).
T8 construct: bought; also called mFcgRIIb; mFcgR IIb
T8 sequence (looked up): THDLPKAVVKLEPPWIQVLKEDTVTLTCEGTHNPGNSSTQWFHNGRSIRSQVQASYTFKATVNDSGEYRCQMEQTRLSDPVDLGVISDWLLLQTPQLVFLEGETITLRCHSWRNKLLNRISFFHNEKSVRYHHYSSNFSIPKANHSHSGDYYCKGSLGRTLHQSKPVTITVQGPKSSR
The assay is described as follows: SPR, antibody captured by Protein L, mouse FcγR as analyte, pH 7.4, 25 C.

Another assay has as its target T9, mouse FcγRIV (mouse, UniProt A0A0B4J1G0 21-203).
T9 construct: bought; also called mFcgRIV; mFcgR IV; the vendor's purification tag not given
T9 sequence: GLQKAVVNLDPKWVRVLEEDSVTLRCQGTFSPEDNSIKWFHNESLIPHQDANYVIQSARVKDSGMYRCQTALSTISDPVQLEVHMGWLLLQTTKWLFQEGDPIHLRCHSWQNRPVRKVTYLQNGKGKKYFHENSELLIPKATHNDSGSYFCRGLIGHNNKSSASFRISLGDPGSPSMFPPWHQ
Described as above.

The target in assay [4] is T10, human FcγRIIb (human, UniProt P31994 43-217, limits assumed).
T10 construct: also called FcγIIB
T10 sequence: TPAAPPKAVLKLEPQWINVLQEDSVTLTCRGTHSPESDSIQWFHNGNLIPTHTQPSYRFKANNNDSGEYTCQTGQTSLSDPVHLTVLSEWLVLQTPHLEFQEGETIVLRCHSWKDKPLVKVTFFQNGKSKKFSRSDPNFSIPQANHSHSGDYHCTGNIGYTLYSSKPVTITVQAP
Put plainly: SPR (Biacore); ratio against IgG1.

The target of assay [5] is T10, human FcγRIIb. Put plainly: SPR (Biacore); ratio against IgG1. This is another data set of the same source.
Assay [6] has as its target T10, human FcγRIIb. The assay is described as follows: SPR (Biacore), antibody captured, FcγR as analyte.
The target in assay [7] is T10, human FcγRIIb. Put plainly: SPR (Biacore), antibody captured, FcγR as analyte. The source holds these as a separate data set.

T1 sequence (P12314 16-292 limits assumed): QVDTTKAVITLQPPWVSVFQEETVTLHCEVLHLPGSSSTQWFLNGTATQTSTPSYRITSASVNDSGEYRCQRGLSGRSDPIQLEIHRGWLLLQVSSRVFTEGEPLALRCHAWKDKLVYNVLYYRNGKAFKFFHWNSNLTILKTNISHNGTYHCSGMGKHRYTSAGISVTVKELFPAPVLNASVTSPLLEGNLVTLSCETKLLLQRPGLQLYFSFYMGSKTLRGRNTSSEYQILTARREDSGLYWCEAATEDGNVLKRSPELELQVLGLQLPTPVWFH
T6 sequence (chain, as listed by the source limits assumed, chain 1 of 2): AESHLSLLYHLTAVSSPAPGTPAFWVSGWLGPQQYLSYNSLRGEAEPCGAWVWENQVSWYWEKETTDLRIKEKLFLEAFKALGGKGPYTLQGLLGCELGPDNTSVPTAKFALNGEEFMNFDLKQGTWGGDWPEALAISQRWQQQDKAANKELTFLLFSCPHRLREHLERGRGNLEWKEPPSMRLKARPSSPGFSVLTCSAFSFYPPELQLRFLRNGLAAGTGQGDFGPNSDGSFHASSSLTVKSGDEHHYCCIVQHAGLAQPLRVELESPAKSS
T6 sequence (P61769 21-119 limits assumed, chain 2 of 2): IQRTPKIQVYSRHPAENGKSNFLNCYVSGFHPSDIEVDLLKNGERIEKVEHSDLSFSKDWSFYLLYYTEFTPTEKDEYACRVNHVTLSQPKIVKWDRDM
T7 sequence (chain, as listed by the source limits assumed, chain 1 of 2): as the sequence (chain, as listed by the source limits assumed, chain 1 of 2) above
T7 sequence (P61769 21-119 limits assumed, chain 2 of 2): as the sequence (P61769 21-119 limits assumed, chain 2 of 2) above

B1: VH3-IgG2-F939/L(WT)-CK (antibody)
heavy: QVQLQESGPGLVKPSETLSLTCAVSGHSISHDHAWSWVRQPPGEGLEWIGFISYSGITNYNPSLQGRVTISRDNSKNTLYLQMNSLRAEDTAVYYCARSLARTTAMDYWGEGTLVTVSSASTKGPSVFPLAPCSRSTSESTAALGCLVKDYFPEPVTVSWNSGALTSGVHTFPAVLQSSGLYSLSSVVTVPSSNFGTQTYTCNVDHKPSNTKVDKTVERKCCVECPPCPAPPVRGPKVFLFPPKPKDTLYISRTPEVTCVVVDVSHEDPEVQFNWYVDGVEVHNAKTKPREEQFNSTFRVVSVLTVVHQDWLNGKEYKCKVSNKGLPAPIEKTISKTKGQPREPQVYTLPPSREEMTKNQVSLTCLVKGFYPSDIAVEWESNGQPENNYKTTPPMLDSDGSFFLYSKLTVDKSRWQQGNVFSCSVMHEALHYHVTQKSLSLSP
light: not shown
notes: A235R/S239K/M252Y/N434Y/Y436V in VH3-IgG2; copies: 2 + 2
As to B1, the binding amount in the assay with human FcγRIa was found to be 1.3 RU; with human FcγRIIa(R), 1 RU; with human FcγRIIa(H) it was 1 RU; in the assay with human FcγRIIb [1], 0.4 RU; in the assay with human FcγRIIIa(V), 1.1 RU. For the same molecule, in assay [2], the Kd (in general, a measure of binding affinity in units of concentration) was 140 nM.

B2: antibody with VH3-IgG1-F424 heavy chain and L(WT)-CK light chain (antibody)
heavy: QVQLQESGPGLVKPSETLSLTCAVSGHSISHDHAWSWVRQPPGEGLEWIGFISYSGITNYNPSLQGRVTISRDNSKNTLYLQMNSLRAEDTAVYYCARSLARTTAMDYWGEGTLVTVSSASTKGPSVFPLAPSSKSTSGGTAALGCLVKDYFPEPVTVSWNSGALTSGVHTFPAVLQSSGLYSLSSVVTVPSSSLGTQTYICNVNHKPSNTKVDKKVEPKSCDKTHTCPPCPAPELLGGPKVFLFPPKPKDTLMISRTAEVTCVVVDVSHEDPEVKFNWYVDGVEVHNAKTKPREEQYNSTYRVVSVLTPLHQDWLNGKEYKCKVSNKALPAPIEKTISKAKGQPREPQVYTLPPSRDELTKNQVSLTCLVKGFYPSDIAVEWESNGQPENNYKTTPPVLDSDGSFFLYSKLTVDKSRWQQGNVFSCSVLHEALHYHYTQKSLSLSP
light: not shown
notes: S239K/P257A/V308P/M428L/N434Y; copies: 2 + 2
Regarding B2, in assay [3], binding was put at a Kd of 94 nM. The results for the “BINDING AMOUNT (RU)” value with mouse FcγRIIb and with mouse FcγRIV were -2.5 RU and 138 RU, respectively.

B3: IgG1-v1 (antibody)
heavy: not shown
light: DIQMTQSPSSLSASVGDRVTITCRASQDISSYLNWYQQKPGKAPKLLIYYTSRLHSGVPSRFSGSGSGTDFTFTISSLQPEDIATYYCQQGNTLPYTFGQGTKVEIK
notes: IL6R-G1d with P238D (EU numbering); also called IL6R-G1d-v1
Take B3: the “relative KD for FcγRIIb (KD for IgG1/KD for each variant)” value with human FcγRIIb [4] and with human FcγRIIb [5] was 4.8 each time. The Kd with human FcγRIIb [6] and with human FcγRIIb [7] was 1100 nM throughout.

B4: IgG1-v5 (antibody)
heavy: QVQLQESGPGLVKPSETLSLTCAVSGHSISHDHAWSWVRQPPGEGLEWIGFISYSGITNYNPSLQGRVTISRDNSKNTLYLQMNSLRAEDTAVYYCARSLARTTAMDYWGEGTLVTVSSASTKGPSVFPLAPSSKSTSGGTAALGCLVKDYFPEPVTVSWNSGALTSGVHTFPAVLQSSGLYSLSSVVTVPSSSLGTQTYICNVNHKPSNTKVDKKVEPKSCDKTHTCPPCPAPELLGGDSVFLFPPKPKDTLMISRTPEVTCVVVDVEHEDPEVKFNWYVDGVEVHNAKTKPREEQYNSTYRVVSVLTVLHQDWLNGKEYKCKVSNKAFPAPIEKTISKAKGQPREPQVYTLPPSRDELTKNQVSLTCLVKGFYPSDIAVEWESNGQPENNYKTTPPVLDSDGSFFLYSKLTVDKSRWQQGNVFSCSVMHEALHNHYTQKSLSLSP
light: DIQMTQSPSSLSASVGDRVTITCRASQDISSYLNWYQQKPGKAPKLLIYYTSRLHSGVPSRFSGSGSGTDFTFTISSLQPEDIATYYCQQGNTLPYTFGQGTKVEIK
notes: IL6R-G1d with P238D/S267E/L328F (EU numbering); The L chain is not restated for v5; also called IL6R-G1d-v5; P238D/S267E/L328F
Regarding B4, in the assay with human FcγRIIb [5], the “relative KD for FcγRIIb (KD for IgG1/KD for each variant)” value came out at 12. In the assay with human FcγRIIb [7], this molecule showed an equilibrium dissociation constant (Kd) of 450 nM.

B5: VH3-IgG4-F890/L(WT)-CK (antibody)
heavy: QVQLQESGPGLVKPSETLSLTCAVSGHSISHDHAWSWVRQPPGEGLEWIGFISYSGITNYNPSLQGRVTISRDNSKNTLYLQMNSLRAEDTAVYYCARSLARTTAMDYWGEGTLVTVSSASTKGPSVFPLAPCSRSTSESTAALGCLVKDYFPEPVTVSWNSGALTSGVHTFPAVLQSSGLYSLSSVVTVPSSSLGTKTYTCNVDHKPSNTKVDKRVESKYGPPCPPCPAPEFLGGPSVFLFPPKPKDTLYISRTPEVTCVVVDVSQEDPEVQFNWYVDGVEVHNAKTKPREEQFNSTYRVVSVLTVLHQDWLNGKEYKCKVSNKGLPSSIEKTISKAKGQPREPQVYTLPPSQEEMTKNQVSLTCLVKGFYPSDIAVEWESNGQPENNYKTTPPVLDSDGSFFLYSRLTVDKSRWQEGNVFSCSVMHEALHYHVTQKSLSLSL
light: not shown
notes: M252Y/N434Y/Y436V in VH3-IgG4; copies: 2 + 2
Regarding B5, the binding amount with human FcγRIa was found to be 367 RU; in the assay with human FcγRIIa(R), 92.8 RU; in the assay with human FcγRIIa(H) it was 37.5 RU; in the assay with human FcγRIIb [1], 71.8 RU; with human FcγRIIIa(V), 15.5 RU. Besides, the Kd in [2] is 140 nM.

B6: VH3-IgG4-F939/L(WT)-CK (antibody)
heavy: QVQLQESGPGLVKPSETLSLTCAVSGHSISHDHAWSWVRQPPGEGLEWIGFISYSGITNYNPSLQGRVTISRDNSKNTLYLQMNSLRAEDTAVYYCARSLARTTAMDYWGEGTLVTVSSASTKGPSVFPLAPCSRSTSESTAALGCLVKDYFPEPVTVSWNSGALTSGVHTFPAVLQSSGLYSLSSVVTVPSSSLGTKTYTCNVDHKPSNTKVDKRVESKYGPPCPPCPAPEFRGGPKVFLFPPKPKDTLYISRTPEVTCVVVDVSQEDPEVQFNWYVDGVEVHNAKTKPREEQFNSTYRVVSVLTVLHQDWLNGKEYKCKVSNKGLPSSIEKTISKAKGQPREPQVYTLPPSQEEMTKNQVSLTCLVKGFYPSDIAVEWESNGQPENNYKTTPPVLDSDGSFFLYSRLTVDKSRWQEGNVFSCSVMHEALHYHVTQKSLSLSL
light: not shown
notes: L235R/S239K/M252Y/N434Y/Y436V in VH3-IgG4; copies: 2 + 2
Consider B6, for which the binding amount with human FcγRIa was 1.2 RU; with human FcγRIIa(R), -0.2 RU; in the assay with human FcγRIIa(H), -0.7 RU; in the assay with human FcγRIIb [1], 0.4 RU; with human FcγRIIIa(V), -0.5 RU. Also, the Kd in assay [2] is 110 nM.
